Results: the supplement of paper PMC9233669
Fewer inactive variants are shown than the library holds.

Tests used:
[1] = system: biotinyl-Leu-oxazolone; assay: self-aminoacylation, catalytic enhancement (BLO) (fold over background); higher = more active; k-Seq, kA / k0A0; sequences stand for … in GGGAAUGGAUCCACAUCUACGAAUUC…UUCACUGCAGACUUGACGAAGCUG
Procedure, shortened: (§1)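 Each biotinyl-aminoacyl-oxazolone, at 2–1250 μM, was incubated with mutagenized RNA pools (0.43 μM) carrying a 21-nt variable region. The 50 μL reactions contained HEPES/NaCl/KCl/MgCl2/CaCl2 buffer with 5% acetonitrile at pH 6.9–7.0 and ran for 90 minutes at room temperature. After streptavidin capture, RNA was measured by qPCR in triplicate and by Illumina sequencing, and catalytic enhancement was calculated as median kA over the uncatalyzed rate from a pseudo-first-order fit of per-sequence fraction reacted.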

[2] = system: biotinyl-Ile-oxazolone; assay: self-aminoacylation, catalytic enhancement (BIO) (fold over background); higher = more active; k-Seq, kA / k0A0; sequences stand for … in GGGAAUGGAUCCACAUCUACGAAUUC…UUCACUGCAGACUUGACGAAGCUG
Procedure, shortened: as §1

[3] = system: biotinyl-Phe-oxazolone; assay: self-aminoacylation, catalytic enhancement (BFO) (fold over background); higher = more active; k-Seq, kA / k0A0; sequences stand for … in GGGAAUGGAUCCACAUCUACGAAUUC…UUCACUGCAGACUUGACGAAGCUG
Procedure, shortened: as §1

[4] = system: biotinyl-Trp-oxazolone; assay: self-aminoacylation, catalytic enhancement (BWO) (fold over background); higher = more active; k-Seq, kA / k0A0; sequences stand for … in GGGAAUGGAUCCACAUCUACGAAUUC…UUCACUGCAGACUUGACGAAGCUG
Procedure, shortened: as §1

[5] = system: biotinyl-Met-oxazolone; assay: self-aminoacylation, catalytic enhancement (BMO) (fold over background); higher = more active; k-Seq, kA / k0A0; sequences stand for … in GGGAAUGGAUCCACAUCUACGAAUUC…UUCACUGCAGACUUGACGAAGCUG
Procedure, shortened: as §1

[6] = system: biotinyl-Val-oxazolone; assay: self-aminoacylation, catalytic enhancement (BVO) (fold over background); higher = more active; k-Seq, kA / k0A0; sequences stand for … in GGGAAUGGAUCCACAUCUACGAAUUC…UUCACUGCAGACUUGACGAAGCUG
Procedure, shortened: as §1

| Sequence | self-aminoacylation [1] | self-aminoacylation [2] | self-aminoacylation [3] | self-aminoacylation [4] | self-aminoacylation [5] | self-aminoacylation [6] |
| --- | --- | --- | --- | --- | --- | --- |
| AUUCACCUAGGUCACCGGGUA [Fam2.2 aminoacylation ribozyme variant] | 3.2 | 2.6 | 14 | 3.11 | 2.79 | 2.46 |
| AUUCACCUAGGUCACCGGGUG [Fam2.2 aminoacylation ribozyme variant] | 6.44 | 3.51 | 32.2 | 4.63 | 4.95 | 3.55 |
| AUUCACCUAGGUCACCGGUUG [Fam2.2 aminoacylation ribozyme variant] | 1.55 | 1.92 | 7.82 | 1.29 | 1.62 | 1.7 |
| AUUCACCUAGGUCACUGGGUG [Fam2.2 aminoacylation ribozyme variant] | 3.93 | 1.8 | 19.7 | 2.52 | 2.82 | 1.72 |
| AUUCACCUAGGUCAGCGGGUU [Fam2.2 aminoacylation ribozyme variant] | 2.42 | 2.56 | 4.6 | 1.94 | 1.65 | 2.15 |
| AUUCACCUAGGUCAGCUGGUG [Fam2.2 aminoacylation ribozyme variant] | 2.7 | 1.92 | 15.1 | 1.7 | 2.56 | 1.64 |
| AUUCACCUAGGUCAGUGGGUG [Fam2.2 aminoacylation ribozyme variant] | 1.26 | 0.904 | 1.08 | 0.885 | 1 | 0.999 |
| AUUCACCUAGGUCAUAGGGUU [Fam2.2 aminoacylation ribozyme variant] | 0.676 | 0.918 | 0.392 | 0.959 | 0.827 | 0.804 |
| AUUCACCUAGGUCAUAUGGUG [Fam2.2 aminoacylation ribozyme variant] | 4.8 | 2.25 | 20.3 | 3.68 | 3.44 | 2.25 |
| AUUCACCUAGGUCAUCACGUG [Fam2.2 aminoacylation ribozyme variant] | 4.54 | 2.03 | 23.1 | 3.56 | 3.99 | 2.62 |
| AUUCACCUAGGUCAUCCGGGG [Fam2.2 aminoacylation ribozyme variant] | 4.27 | 3.2 | 7.28 | 3.23 | 3.21 | 2.84 |
| AUUCACCUAGGUCAUCCGUUG [Fam2.2 aminoacylation ribozyme variant] | 1.16 | 1.31 | 4.37 | 0.699 | 0.997 | 1.19 |
| AUUCACCUAGGUCAUCCUGUG [Fam2.2 aminoacylation ribozyme variant] | 1.04 | 1.13 | 1.42 | 0.316 | 0.923 | 0.885 |
| AUUCACCUAGGUCAUCGACUG [Fam2.2 aminoacylation ribozyme variant] | 0.553 | 0.564 | 0.459 | 0.318 | 0.561 | 0.6 |
| AUUCACCUAGGUCAUCGAGAG [Fam2.2 aminoacylation ribozyme variant] | 1.47 | 0.915 | 1.13 | 0.394 | 1.07 | 0.848 |
| AUUCACCUAGGUCAUCGAGUA [Fam2.2 aminoacylation ribozyme variant] | 13.1 | 7.22 | 31.7 | 3.9 | 9.81 | 5.92 |
| AUUCACCUAGGUCAUCGCAUG [Fam2.2 aminoacylation ribozyme variant] | 1.22 | 1.05 | 0.374 | 1.06 | 1.04 | 1.28 |
| AUUCACCUAGGUCAUCGGAUU [Fam2.2 aminoacylation ribozyme variant] | 0.837 | 0.872 | 0.438 | 1.19 | 0.853 | 0.864 |
| AUUCACCUAGGUCAUCGGGGU [Fam2.2 aminoacylation ribozyme variant] | 12.2 | 5.09 | 40.5 | 7.01 | 7.67 | 5.09 |
| AUUCACCUAGGUCAUCGGUUU [Fam2.2 aminoacylation ribozyme variant] | 1.28 | 1.19 | 1.09 | 0.984 | 1.19 | 1.41 |
| AUUCACCUAGGUCAUCGUCUG [Fam2.2 aminoacylation ribozyme variant] | 0.717 | 0.663 | 0.312 | 0.376 | 0.67 | 0.718 |
| AUUCACCUAGGUCAUCGUGUC [Fam2.2 aminoacylation ribozyme variant] | 0.498 | 0.461 | 0.307 | 0.514 | 0.403 | 0.474 |
| AUUCACCUAGGUCAUCGUUUG [Fam2.2 aminoacylation ribozyme variant] | 0.556 | 0.592 | 0.512 | 0.31 | 0.542 | 0.771 |
| AUUCACCUAGGUCAUCUGGGG [Fam2.2 aminoacylation ribozyme variant] | 1.9 | 1.63 | 2.49 | 1.54 | 1.83 | 1.5 |
| AUUCACCUAGGUCAUCUGGUG [Fam2.2 aminoacylation ribozyme variant] | 3.41 | 1.93 | 16.5 | 2.62 | 2.71 | 1.9 |
